Experimental data from publication PMC9195047 (The Journal of Experimental Medicine, 2022).

Legend:
[1] = molecular target: VEEV TC-83 structural proteins (capsid-p62-6K-E1) displayed on Expi293F cells (Venezuelan equine encephalitis virus, …, UniProt P05674, strain); assay: flow cytometry on cells
[2] = molecular target: CHIKV 181/25 structural proteins on infected Vero cells (Chikungunya virus, 181/25, UniProt Q88628, strain); assay: flow cytometry on cells

B1: hVEEV-63 (human anti-VEEV monoclonal antibody, IgG1) (antibody, V domains shown)
VH: QVQLVQSGAEVKKPGASVKVSCKSSGYTFTNYIIHWVRQAPGQRLEWMGWINAGNGNTKYSQKFQGRISVTRDTSASAAYMELSSLKSEDTALYYCATLQMDYGGNGDLDYWGQGTLVTVSS
VL: YELTQPPSVSVSPGQTARITCSGDALPKQYVYWYQQKPGQAPVLVIYKDSERPSGIPERFSGSSSGTTVTLTISGVQAEDDADYYCQAADSSNTEYVFGTGTKVTVL
Question: What does the source list for B1?
Answer: binding result [1]: binds; binding result [2]: no binding (tested: 10 µg/ml)
